One series deals with hERαCDE Y191H (Homo sapiens, UniProt P03372 181-552, Y191H). The series can be described thus: fluorescence anisotropy; E2, TIF2 coactivator peptide; 20 nM DNA; FA: 10 mM CHES pH 9.5, 50 mM KCl, 50 mM NaCl, 4 mM MgCl2, 50 mM arginine, 50 mM glutamic acid, 5 mM TCEP, 5% glycerol, 10 uM ZnCl2, 10 uM E2; 20 nM DNA, 10 min; temperature not stated. The conditions noted are these: protein: recombinant; tags: His-tag (pMCSG7), removed by TEV; chain copies: 2; label: 5' 6-FAM (strands described as 5'-labeled); blunt, 19 bp as printed (text says 18-bp).

For another series, the target named is hERαCDE W393A (Homo sapiens, UniProt P03372 181-552, W393A). Described as above. The following applies: protein: recombinant; tags: His-tag (pMCSG7), removed by TEV; chain copies: 2; label: 5' 6-FAM (strands described as 5'-labeled); blunt, 19 bp as printed (text says 18-bp).
A further series addresses hERαCDE WT (Homo sapiens, UniProt P03372 181-552). The series can be described thus: fluorescence anisotropy; E2, TIF2 coactivator peptide; 20 nM DNA; apparent Kd; FA: 10 mM CHES pH 9.5, 50 mM KCl, 50 mM NaCl, 4 mM MgCl2, 50 mM arginine, 50 mM glutamic acid, 5 mM TCEP, 5% glycerol, 10 uM ZnCl2, 10 uM E2; 20 nM DNA, 10 min; temperature not stated. The following applies: protein: recombinant; tags: His-tag (pMCSG7), removed by TEV; chain copies: 2; label: 5' 6-FAM (strands described as 5'-labeled); blunt, 19 bp as printed (text says 18-bp).

Series [1] concerns the molecule itself. As to the kind of experiment: SEC-SAXS + hydroxyl radical protein footprinting, docked models scored against both data sets; hERα^CDE eluted from Superdex 200 with E2, ERE–DNA and TIF2 peptide; 10 mM CHES pH 9.5, 50 mM NaCl, 50 mM KCl; footprinting at 2 µM protein, pH 9.5. For orientation: In gel filtration, larger molecules generally elute earlier.

hERαCDE W393A, sequence (P03372 181-552 W393A): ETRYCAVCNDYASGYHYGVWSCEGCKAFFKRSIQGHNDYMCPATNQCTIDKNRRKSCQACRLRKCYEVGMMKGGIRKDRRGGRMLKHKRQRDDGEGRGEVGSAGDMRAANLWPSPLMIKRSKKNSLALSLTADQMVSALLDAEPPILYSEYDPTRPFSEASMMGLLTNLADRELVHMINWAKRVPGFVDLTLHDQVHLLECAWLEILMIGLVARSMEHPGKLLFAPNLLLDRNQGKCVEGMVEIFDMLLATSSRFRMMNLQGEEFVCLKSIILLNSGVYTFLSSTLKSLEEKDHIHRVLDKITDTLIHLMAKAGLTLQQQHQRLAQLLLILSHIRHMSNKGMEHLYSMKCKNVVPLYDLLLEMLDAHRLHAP

B1: 6-FAM ERE-DNA (dsDNA)
DNA 1: TAGGTCACAGTGACCTGCG
DNA 2: CGCAGGTCACTGTGACCTA
Take B1: the Kd came out at 3.2 nM in the series with hERαCDE Y191H, 10.8 nM in the series with hERαCDE W393A and 9.2 nM with hERαCDE WT.

B2: human estrogen receptor alpha multidomain segment containing both DBD and LBD (residues E181–P552), hERα^CDE (domain or fragment, UniProt P03372 181-552, looked up)
chain: ETRYCAVCNDYASGYHYGVWSCEGCKAFFKRSIQGHNDYMCPATNQCTIDKNRRKSCQACRLRKCYEVGMMKGGIRKDRRGGRMLKHKRQRDDGEGRGEVGSAGDMRAANLWPSPLMIKRSKKNSLALSLTADQMVSALLDAEPPILYSEYDPTRPFSEASMMGLLTNLADRELVHMINWAKRVPGFVDLTLHDQVHLLECAWLEILMIGLVWRSMEHPGKLLFAPNLLLDRNQGKCVEGMVEIFDMLLATSSRFRMMNLQGEEFVCLKSIILLNSGVYTFLSSTLKSLEEKDHIHRVLDKITDTLIHLMAKAGLTLQQQHQRLAQLLLILSHIRHMSNKGMEHLYSMKCKNVVPLYDLLLEMLDAHRLHAP
notes: Cloned into pMCSG7 and the His-tag removed with TEV protease; In the assays it carried estradiol (E2) and ERE-DNA; also called hERα^CDE–DNA-E2 complex; protein part of hERα^complex; source: E. coli Rosetta2(DE3)pLysS, expressed in the presence of estradiol, purified (TALON resin, TEV cleavage, Superdex 200)
For B2, the binding result in series [1] is listed as “binds”.

(Values after article PMC6117352, “Multidomain architecture of estrogen receptor reveals interfacial cross-talk between its DNA-binding and ligand-binding domains” (Nature Communications, 2018).)
